# Assay results as given in patent publication US20200102347A1 (AUCTUS BIOLOGIES, published 2020).
# Changes are numbered by the printed parent chain. Numbers in names are those of the source. No end group written: not given here. *: point of attachment. RhodamineB = CCN(CC)c1ccc2c(-c3ccccc3C(=O)*)c3ccc(=[N+](CC)CC)cc-3oc2c1
# T1: NativeRPtag(large)_with_Tags_and_Cys (Thermoanaerobacter tengcongensis)
# T1 construct: Unlabeled in anisotropy assays; coupled through the engineered N-terminal Cys to SulfoLink agarose or maleimide plates in column, pull-down and ELISA assays
# T1 chain: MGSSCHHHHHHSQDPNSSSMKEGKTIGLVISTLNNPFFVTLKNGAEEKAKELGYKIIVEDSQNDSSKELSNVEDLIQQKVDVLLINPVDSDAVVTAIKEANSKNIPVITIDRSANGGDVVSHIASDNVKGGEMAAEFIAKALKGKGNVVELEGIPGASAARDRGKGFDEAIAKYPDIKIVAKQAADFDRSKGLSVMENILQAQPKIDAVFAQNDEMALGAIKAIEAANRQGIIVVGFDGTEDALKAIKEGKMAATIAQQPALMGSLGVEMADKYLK
# T2: MaturePDGF-β_NterminalPeptide
# T2 construct: an N-terminal G was added and is left out of the numbering; also called PDGF-β peptide
# T2 peptide: RhodamineB-GSLGSLTIAEPAMIAE
# B1: RPtag(small) v20a (peptide)
# peptide: RhodamineB-GEKIPNFIPAELKLITKENAQ
# notes: built here from the native peptide with the stated change
# B2: RPtag(small) Nd2, Cd4 (peptide)
# peptide: RhodamineB-KIPNFIPAELKLITK
# B3: a253k (designed binder)
# single chain: T1 chain with A253K
# notes: also called RPtag(large) A253K
# B4: k129y (designed binder)
# single chain: T1 chain with K129Y
# notes: also called RPtag(large) K129Y
# B5: d126a (designed binder)
# single chain: T1 chain with D126A
# notes: also called RPtag(large) D126A
# B6: d126w (designed binder)
# single chain: T1 chain with D126W
# notes: also called RPtag(large) D126W
# B7: f137t (designed binder)
# single chain: T1 chain with F137T
# notes: also called RPtag(large) F137T
# B8: g130v (designed binder)
# single chain: T1 chain with G130V
# notes: also called RPtag(large) G130V
# B9: h122f (designed binder)
# single chain: T1 chain with H122F
# notes: also called RPtag(large) H122F
# B10: h122a (designed binder)
# single chain: T1 chain with H122A
# notes: also called RPtag(large) H122A
# B11: m270n (designed binder)
# single chain: T1 chain with M270N
# notes: also called RPtag(large) M270N
# B12: k129h (designed binder)
# single chain: T1 chain with K129H
# notes: also called RPtag(large) K129H
# B13: a253r (designed binder)
# single chain: T1 chain with A253R
# notes: also called RPtag(large) A253R
# B14: k129a (designed binder)
# single chain: T1 chain with K129A
# notes: also called RPtag(large) K129A
# B15: g130a (designed binder)
# single chain: T1 chain with G130A
# notes: also called RPtag(large) G130A
# B16: m270k (designed binder)
# single chain: T1 chain with M270K
# notes: also called RPtag(large) M270K
# B17: h122w (designed binder)
# single chain: T1 chain with H122W
# notes: also called RPtag(large) H122W
# B18: h122l (designed binder)
# single chain: T1 chain with H122L
# notes: also called RPtag(large) H122L
# B19: m270e (designed binder)
# single chain: T1 chain with M270E
# notes: also called RPtag(large) M270E
# B20: m270r (designed binder)
# single chain: T1 chain with M270R
# notes: also called RPtag(large) M270R
# B21: k129f (designed binder)
# single chain: T1 chain with K129F
# notes: also called RPtag(large) K129F
# B22: f137s (designed binder)
# single chain: T1 chain with F137S
# notes: also called RPtag(large) F137S
# Molecular target: T1, NativeRPtag(large)_with_Tags_and_Cys
# Assay: fluorescence anisotropy
row,Kd,Binder
1,1200 pM,RhodamineB-GEKIPNFIPAELKLIAKENVQ [RPtag(small) t16a]
2,180 pM,B1
3,1000 pM,RhodamineB-GEKIPNFIPAELKLITK [RPtag(small) Cd4]
4,360 pM,"RhodamineB-KIPNFIPAELKLITKANAA [RPtag(small) Nd2, e18a, v20a, q21a]"
5,160 pM,"RhodamineB-KIANFIPAELKLITKANAA [RPtag(small) Nd2, p5a, e18a, v20a, q21a]"
6,1100 pM,RhodamineB-GEKIPNFIPAELKLITKEN [RPtag(small) Cd2]
7,1200 pM,RhodamineB-GEKIPNFIPAELKLITKE [RPtag(small) Cd3]
8,410 pM,B2
9,820 pM,"RhodamineB-KIANFIPAELKLITK [RPtag(small) Nd2, Cd4, p5a]"
10,560 pM,"RhodamineB-KIPNFIPAELKLITKE [RPtag(small) Nd2, Cd3]"
11,640 pM,"RhodamineB-KIANFIPAELKLITKE [RPtag(small) Nd2, Cd3, p5a]"
12,560 pM,"RhodamineB-KIANFIPAELKLITKA [RPtag(small) Nd2, Cd3, p5a, e18a]"
13,130 pM,"RhodamineB-KIPNFIPAELKLITKA [RPtag(small) Nd2, Cd3, e18a]"
14,550 pM,RhodamineB-GEKIPNFIPAELKLITKENV [RPtag(small) Cd1]
15,250 pM,RhodamineB-EKIPNFIPAELKLITKENVQ [RPtag(small) Nd1]

# Molecular target: T1, NativeRPtag(large)_with_Tags_and_Cys
# Assay: calculated from koff and Kd
row,kon,Binder
1,1.25e+06 M⁻¹ s⁻¹,RhodamineB-GEKIPNFIPAELKLIAKENVQ [RPtag(small) t16a]
2,1.13e+06 M⁻¹ s⁻¹,B1
3,3.67e+06 M⁻¹ s⁻¹,RhodamineB-GEKIPNFIPAELKLITK [RPtag(small) Cd4]
4,600000 M⁻¹ s⁻¹,"RhodamineB-KIPNFIPAELKLITKANAA [RPtag(small) Nd2, e18a, v20a, q21a]"
5,3.33e+06 M⁻¹ s⁻¹,"RhodamineB-KIANFIPAELKLITKANAA [RPtag(small) Nd2, p5a, e18a, v20a, q21a]"
6,1.63e+06 M⁻¹ s⁻¹,RhodamineB-GEKIPNFIPAELKLITKEN [RPtag(small) Cd2]
7,1.83e+06 M⁻¹ s⁻¹,RhodamineB-GEKIPNFIPAELKLITKE [RPtag(small) Cd3]
8,3.33e+06 M⁻¹ s⁻¹,B2
9,3.67e+06 M⁻¹ s⁻¹,"RhodamineB-KIANFIPAELKLITK [RPtag(small) Nd2, Cd4, p5a]"
10,1.37e+06 M⁻¹ s⁻¹,"RhodamineB-KIPNFIPAELKLITKE [RPtag(small) Nd2, Cd3]"
11,4.33e+06 M⁻¹ s⁻¹,"RhodamineB-KIANFIPAELKLITKE [RPtag(small) Nd2, Cd3, p5a]"
12,5.5e+06 M⁻¹ s⁻¹,"RhodamineB-KIANFIPAELKLITKA [RPtag(small) Nd2, Cd3, p5a, e18a]"
13,6.67e+06 M⁻¹ s⁻¹,"RhodamineB-KIPNFIPAELKLITKA [RPtag(small) Nd2, Cd3, e18a]"
14,183000 M⁻¹ s⁻¹,RhodamineB-GEKIPNFIPAELKLITKENV [RPtag(small) Cd1]
15,567000 M⁻¹ s⁻¹,RhodamineB-EKIPNFIPAELKLITKENVQ [RPtag(small) Nd1]

# Molecular target: T1, NativeRPtag(large)_with_Tags_and_Cys
# Assay: fluorescence anisotropy, competitor chase
row,koff,Binder
1,0.00148 s⁻¹,RhodamineB-GEKIPNFIPAELKLIAKENVQ [RPtag(small) t16a]
2,0.0002 s⁻¹,B1
3,0.00367 s⁻¹,RhodamineB-GEKIPNFIPAELKLITK [RPtag(small) Cd4]
4,0.000383 s⁻¹,"RhodamineB-KIPNFIPAELKLITKANAA [RPtag(small) Nd2, e18a, v20a, q21a]"
5,0.000217 s⁻¹,"RhodamineB-KIANFIPAELKLITKANAA [RPtag(small) Nd2, p5a, e18a, v20a, q21a]"
6,0.00183 s⁻¹,RhodamineB-GEKIPNFIPAELKLITKEN [RPtag(small) Cd2]
7,0.002 s⁻¹,RhodamineB-GEKIPNFIPAELKLITKE [RPtag(small) Cd3]
8,0.00132 s⁻¹,B2
9,0.003 s⁻¹,"RhodamineB-KIANFIPAELKLITK [RPtag(small) Nd2, Cd4, p5a]"
10,0.000767 s⁻¹,"RhodamineB-KIPNFIPAELKLITKE [RPtag(small) Nd2, Cd3]"
11,0.00267 s⁻¹,"RhodamineB-KIANFIPAELKLITKE [RPtag(small) Nd2, Cd3, p5a]"
12,0.003 s⁻¹,"RhodamineB-KIANFIPAELKLITKA [RPtag(small) Nd2, Cd3, p5a, e18a]"
13,0.000883 s⁻¹,"RhodamineB-KIPNFIPAELKLITKA [RPtag(small) Nd2, Cd3, e18a]"
14,0.000102 s⁻¹,RhodamineB-GEKIPNFIPAELKLITKENV [RPtag(small) Cd1]
15,0.000147 s⁻¹,RhodamineB-EKIPNFIPAELKLITKENVQ [RPtag(small) Nd1]

# Molecular target: T1, NativeRPtag(large)_with_Tags_and_Cys
# Assay: fluorescence anisotropy, association kinetics
Keq (S-S*),kf (S to S*),kr (S* to S),Binder
2.5,0.071 min⁻¹,0.038 min⁻¹,RhodamineB-GEKIPNFIPAELKLIAKENVQ [RPtag(small) t16a]
1.5,0.073 min⁻¹,0.05 min⁻¹,B1
1.3,0.014 min⁻¹,0.11 min⁻¹,RhodamineB-GEKIPNFIPAELKLITK [RPtag(small) Cd4]
0.8,0.045 min⁻¹,0.06 min⁻¹,"RhodamineB-KIPNFIPAELKLITKANAA [RPtag(small) Nd2, e18a, v20a, q21a]"
0.4,0.05 min⁻¹,0.14 min⁻¹,"RhodamineB-KIANFIPAELKLITKANAA [RPtag(small) Nd2, p5a, e18a, v20a, q21a]"
3.5,0.15 min⁻¹,0.043 min⁻¹,RhodamineB-GEKIPNFIPAELKLITKEN [RPtag(small) Cd2]
3.1,0.014 min⁻¹,0.045 min⁻¹,RhodamineB-GEKIPNFIPAELKLITKE [RPtag(small) Cd3]
0.7,0.093 min⁻¹,0.13 min⁻¹,B2
0.8,0.11 min⁻¹,0.14 min⁻¹,"RhodamineB-KIANFIPAELKLITK [RPtag(small) Nd2, Cd4, p5a]"
0.6,0.081 min⁻¹,0.14 min⁻¹,"RhodamineB-KIPNFIPAELKLITKE [RPtag(small) Nd2, Cd3]"
0.6,0.093 min⁻¹,0.16 min⁻¹,"RhodamineB-KIANFIPAELKLITKE [RPtag(small) Nd2, Cd3, p5a]"
0.7,0.086 min⁻¹,0.13 min⁻¹,"RhodamineB-KIANFIPAELKLITKA [RPtag(small) Nd2, Cd3, p5a, e18a]"
0.3,0.084 min⁻¹,0.26 min⁻¹,"RhodamineB-KIPNFIPAELKLITKA [RPtag(small) Nd2, Cd3, e18a]"
2.5,0.1 min⁻¹,0.042 min⁻¹,RhodamineB-GEKIPNFIPAELKLITKENV [RPtag(small) Cd1]
2.7,0.064 min⁻¹,0.024 min⁻¹,RhodamineB-EKIPNFIPAELKLITKENVQ [RPtag(small) Nd1]

# Molecular target: B2
# Assay: fluorescence anisotropy; 2 nM rhodamine Nd2Cd4, unlabeled RPtag large variant titrated; bar of Ka = 1/Kd, right axis
# Description: (§1) After the incubation, fluorescence anisotropy was measured, and the resultant curves were fit with the equation f=y0+(ymax−y0)*(Ptot+x+Kd−sqrt((Ptot+x+Kd)\hat{ }2−4*Ptot*x))/(2*Ptot), where y0 is the baseline anisotropy, ymax is the maximum anisotropy, Ptot is the fixed concentration of labeled peptide used, x is the variable concentration of protein used, and Kd is the measured Kd. […] Buffer was 50 mM Tris pH 8.0, 0.005% Tween20.
row,binding result,Binder
1,binds,B3
2,binds,B4
3,binds,B5
4,binds,B6
5,binds,B7
6,binds,B8
7,binds,B9
8,binds,B10
9,binds,B11
10,binds,B12
11,binds,B13
12,binds,B14
13,binds,B15
14,binds,B16
15,binds,B17
16,binds,B18
17,binds,B19
18,binds,B20
19,binds,B21
20,binds,B22

# Molecular target: T2, MaturePDGF-β_NterminalPeptide
# Assay: fluorescence anisotropy; 20 nM rhodamine PDGF-β N-terminal peptide, unlabeled RPtag large variant titrated; bar of Ka = 1/Kd, left axis
# Description: as §1
row,binding result,Binder
1,binds,B3
2,binds,B4
3,binds,B5
4,binds,B6
5,binds,B7
6,binds,B8
7,binds,B9
8,binds,B10
9,binds,B11
10,binds,B12
11,binds,B13
12,binds,B14
13,binds,B15
14,binds,B16
15,binds,B17
16,binds,B18
17,binds,B19
18,binds,B20
19,binds,B21
20,binds,B22
